Results published in US20250136710A1 (published 2025).
Like-named read-outs stand apart in the source and are kept apart here. One block for each binder: values may come before it.

Assays:
Assay in all cases: FACS
cynomolgus TIGIT [1] = target: T1, cynomolgus TIGIT (cynomolgus macaque, UniProt A0A7N9I9V4 89-209)
cynomolgus TIGIT [2] = target: T1, cynomolgus TIGIT; remark: listed apart in the source
TIGIT [3] = target: T2, TIGIT (human, UniProt Q495A1 22-141)
T2 chain: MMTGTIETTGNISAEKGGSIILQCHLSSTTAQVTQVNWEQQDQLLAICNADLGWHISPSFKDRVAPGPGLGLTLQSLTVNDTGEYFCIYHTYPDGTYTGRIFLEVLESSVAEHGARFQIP

TIGIT [4] = target: T2, TIGIT
[5] = target: T3, cynomolgus macaque PVRIG expressed on HEK293 cells (cynomolgus macaque, UniProt A0A2K5WVV8 1-322)
T3 chain: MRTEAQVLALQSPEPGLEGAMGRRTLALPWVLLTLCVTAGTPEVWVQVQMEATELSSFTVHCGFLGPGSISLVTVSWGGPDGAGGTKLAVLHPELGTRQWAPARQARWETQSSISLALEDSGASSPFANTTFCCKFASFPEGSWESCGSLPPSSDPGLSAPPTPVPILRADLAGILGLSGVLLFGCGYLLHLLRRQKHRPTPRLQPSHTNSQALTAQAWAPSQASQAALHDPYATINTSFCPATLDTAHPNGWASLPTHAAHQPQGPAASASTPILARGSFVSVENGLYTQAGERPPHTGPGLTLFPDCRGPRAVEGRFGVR

mouse TIGIT = target: T4, mouse TIGIT (mouse, UniProt P86176 29-148)
T4 chain: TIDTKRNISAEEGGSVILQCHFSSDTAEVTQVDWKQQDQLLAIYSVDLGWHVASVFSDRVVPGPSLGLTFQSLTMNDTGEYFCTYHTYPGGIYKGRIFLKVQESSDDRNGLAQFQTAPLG

[6] = target: T3, cynomolgus macaque PVRIG expressed on …

T1 sequence (A0A7N9I9V4 entry or part of it): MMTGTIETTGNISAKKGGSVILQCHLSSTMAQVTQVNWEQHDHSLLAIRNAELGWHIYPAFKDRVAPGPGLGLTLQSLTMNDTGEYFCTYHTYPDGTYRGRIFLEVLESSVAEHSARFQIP

Kd (cynomolgus TIGIT [1]): 1.69 nM
B1: BM26 (antibody, V domains shown)
VH: EVQLQQSGPELVKPGSSVKMSCKASGYTFSSYVMHWVKQKPGQGLEWIGYIDPYNDGAKYNEKFKGKATLTSDKSSSTAYMELSSLTSEDSAVYYCARGGPYGWYFDVWGAGTTVTVSS
VL: DIQMTQSPASLSASVGETVTITCRASEHIYSYLSWYQQKQGKSPQLLVYNAKTLAEGVPSRFSGSGSGTQFSLKINSLQPEDFGTYYCQHHFGSPLTFGAGTTLELKR

Kd (cynomolgus TIGIT [2]): 1.67 nM | Kd (TIGIT [3]): 0.71 nM
B2: CPA.9.547.13 (antibody, V domains shown)
VH: EVQLVESGGGLVQPGGSLRLSCAASGFTFSSYIMSWVRQAPGKGLEWVATISGGGTNTYYADSVKGRFTISRDNSKNTLYLQMNSLRAEDTAVYYCAKWLLSYYAMDYWGQGTLVTVSS
VL: DIQMTQSPSSLSASVGDRITITCRASQNINVWLTWYQQKPGKAPKLLIYKASKSHTGVPSRFSGSGSGTDFTLTISSLQPEDFATYYCQQGQSYPYTFGQGTKLEIKR

Kd [5]: 0.35 nM
B4: CHA.7.518.1 (antibody, V domains shown)
VH: QVQLVQSGAEVKKPGASVKVSCKASGYTFTDYNINWVRQAPGQGLEWMGYIYPYIGGSGYAQKFQGRVTMTRDTSTSTVYMELSSLRSEDTAVYYCAREDKTARNAMDYWGQGTLVTVSS
VL: DIQMTQSPSSLSASVGDRVTITCRVSENIYSNLAWYQQKPGKAPKLLIYEATNLAEGVPSRFSGSGSGTDFTLTISSLQPEDFATYYCQHFWGTPYTFGQGTKLEIKR

Kd (mouse TIGIT): 1.32 nM
B6: CPA.9.086 (antibody, V domains shown)
VH: EVQLVETGGGLIQPGRSLRLSCAASGFTFSSYAMHWVRQAPGKGLEWVAVISYAGEVKYYADSVKGRFTISRDNSKNTLYLQMNSLRAEDTAVYYCARDPLPLHYYGMDVWGQGTTVTVSS
VL: QSALTQPRSASGNPGQRVTISCSGSSSNMGRRPVNWYQQIPGTAPKLLIYSQNQRPSGVPDRFSGSQSGTSASLTISGLQSEDEAEYFCAVWDDIGRVLQLGGGTQLAVLG

The remaining lines, values behind:

B3: CHA.9.547.7 (antibody, V domains shown)
VH: EVQLVESGGGLVQPGGSLRLSCAASGFTFSSYIMSWVRQAPGKGLEWVSTISGGGTNTYYADSVKGRFTISRDNSKNTLYLQMNSLRAEDTAVYYCAKWLLSYYAMDYWGQGTLVTVSS
VL: DIQMTQSPSSLSASVGDRVTITCRASQNINVWLTWYQQKPGKAPKLLIYKASKSHTGVPSRFSGSGSGTDFTLTISSLQPEDFATYYCQQGQSYPYTFGQGTKLEIKR
Kd (cynomolgus TIGIT [1]): 1.54 nM | Kd (TIGIT [4]): 1.82 nM

B5: CPA.9.083 (antibody, V domains shown)
VH: EVQLVETGGGLIQPGRSLRLSCAASGFTFSSYAMHWVRQAPGKGLEWVAVISYDGTPVYYADSVKGRFTISRDNSKNTLYLQMNSLRAEDTAVYYCARDPLPLHYYGMDVWGQGTTVTVSS
VL: QSALTQPRSASGNPGQRVTISCSGSSSNMGRRPVNWYQQIPGTAPKLLIYSQNQRPSGVPDRFSGSQSGTSASLTISGLQSEDEAEYFCAVWDGDRRSLQLGGGTQLAVLG
Kd (mouse TIGIT): 0.7 nM

B7: PVRIG (COM701) (antibody, V domains shown)
VH: QVQLVQSGAEVKKPGASVKVSCKASGYAFTNYLIEWVRQAPGQGLEWIGVINPGSGGIYYAQKFQGRVTMTADTSTSTVYMELSSLRSEDTAVYYCARSETHDTWFAYWGQGTLVTVSS
VL: DIQMTQSPSSLSASVGDRVTITCKASQSVRIAVAWFQQKPGKAPKALIYLASTRHTGVPSRFSGSGSGTDFTLTISSVQPEDFATYYCLQHWNYPYTFGQGTKLEIKR
Kd [6]: 0.248 nM
